The subject of assay [1] is phospho-Sic1. As to the kind of experiment: P-Sic1 pull down: in vitro capture of phospho-Sic1 on immobilized wild type or mutant Cdc4-GST-Skp1, anti-Sic1 immunoblot. The class given is binding, yeast. The note with it: Sic1 phosphorylated with Cln2-Cdc28, captured onto GST-Skp1/Cdc4 resin, anti-Sic1 detection. Here is the method: (§1) Mutational analysis of the CPD binding surface. Mutants were tested in vitro by ability to bind phosphorylated Sic1 and then captured onto GST-Skp1/Cdc4 resin and detected with anti-sic1 antibody. Mutants were tested in vivo by ability to degrade GAL1-SIC1 or various phosphorylation mutants. Sites are as follows: 3=Thr 33, Thr 45, Ser 76; 4=Thr 5, Thr 33, Thr 45, Ser 76; 5=Thr 2, Thr 5, Thr 33, Thr 45, Ser 76; 6=Thr 2, Thr 5, Thr 33, Thr 45, Ser 69, Ser 76; 7=Thr 2, Thr 5, Thr 33, Thr 45, Ser 69, Ser 76, Ser 80. GAL1-SIC1 plasmids were transformed into a cdc4Δ strain containing a copy of CDC4 on a TRP1 ARS CEN plasmid. Strains were incubated for 2 days at 30° C.
Bacterially expressed His6-Sic1 was phosphorylated with Cln2-Cdc28 kinase purified from baculovirus infected Sf9 cells as described before (Nature paper). 1 ug of WT or mutant Cdc4-GST-Skp1, immoblized on GSH-Sepharose resin, was incubated with 0.5 ug phospho-Sic1 at 4 C for 1 h and washed 4 times. Captured complexes were resolved on SDS-PAGE and Sic1 visualized by anti-Sic1 Western blotting and ECL. For IEF-2D analysis, several Sic1 phosphorylation reactions were carried out for different time periods to obtain a spectrum of Sic1 that were phosphorylated at different numbers of its nine CDK sites. This pool of phospho-Sic1 (2.5 ug) was incubated with 5 μg of WT or mutant Cdc4-GST-Skp1 as described above. Different phosphorylation states of Sic1 were separated by denaturing isoelectric focusing (IEF)-2D gel electrophoresis and visualized by anti-Sic1 Western blotting and ECL. IEF was performed using pH 3-10NL Immobiline gel strips and IPGphore IEF system (Amersham pharmacia).
(§2) Cdc4 functional assays. CDC4 mutant alleles were assessed for complementation of a cdc4A strain in a plasmid shuffle assay (Nash et al., 2001). Sensitivity to SIC1 dosage was determined by transformation with pMT837 (GAL1-SIC1) or pMT767 (GAL1-SIC1^T33V) and plating on glucose medium or galactose medium. For in vitro capture of phospho-Sic1 by Cdc4, 0.5 μg of bacterially-expressed ^HIS6Sic1 was phosphorylated with immobilized Cln2-Cdc28 kinase from baculovirus-infected Sf9 cells and then incubated with 1 μg of immobilized wild type or mutant Cdc4^263-744-GST-Skp1, at 4° C. for 1 hr, washed 4 times and visualized by anti-Sic1 immunoblot. For isoelectric focusing (IEF)-2D gel analyses, an evenly distributed pool of phospho-Sic1 isoforms was generated by combining different time points in a Sic1 phosphorylation reaction. 2.5 μg of the phospho-Sic1 pool was bound to 5 μg of immobilized wild type or mutant Cdc4^1-744-GST-Skp1. Captured isoforms were separated by denaturing IEF-2D gel electrophoresis using pH3-10NL Immobiline gel strips (Amersham) and visualized by anti-Sic1 immunoblot. Alternatively, the pool of phospho-Sic1 isoforms was incubated in solution with a ubiquitination reaction mix containing ATP, ubiquitin, yeast E1, Cdc34 and either wild type or mutant SCF^Cdc4 complex, composed of a 1:1 ratio of bacterial Cdc4-GST-Skp1 and insect cell-produced Cdc53-Rbx1, at 30° C. for 1 h as previously described (Nash et al., 2001).

Assay [2] deals with cdc4Δ strain. As to the kind of experiment: plasmid shuffle assay: complementation of a cdc4Δ strain by CDC4 alleles. In kind it is cell-based, yeast. Conditions: viability of cdc4Δ strain on 5-FOA, 2 days at 30° C. The method, then:
(§3) All mutants on a TRP1 ARS CEN plasmid were transformed into a cdc4Δ strain (MT 1259) containing a wildtype copy of CDC4 on a URA3 ARS CEN plasmid. Cells were plated on either Trp^−Ura^− or 5-FOA medium for 2 days at 30° C. Viable cells on 5-FOA were grown in Trp medium and transformed with either wild type GAL1-SIC1, GAL1-SIC T45A, or GAL1-SIC T33V on a LEU2 ARS CEN pasmid. Cells were then plated on Leu- Trp-plates containing either glucose or galactose and incubated for 2 days at 30° C.
as §2

Assay [3] has as its system cdc4Δ strain overexpressing SIC1. Put plainly: sensitivity to SIC1 dosage: GAL1-SIC1 overexpression in strains bearing CDC4 alleles. In kind it is cell-based, yeast. Conditions: for gal Sic1T33V: GAL1-SIC1 T33V (partially stabilized Sic1); for gal Sic1T33V / gal Sic1T45A / gal Sic1 wt: galactose, 2 days at 30° C.; for gal Sic1T45A: GAL1-SIC1 T45A; for gal Sic1 wt: GAL1-SIC1 wild type; for viability / sensitivity to increased SIC1 dosage: Sic1 wt or stabilized Sic1(T33V) or Sic1(T45A) over-expressed under a galactose promoter. The method, then:
as §1, §3
Since the cell viability assay nay be masking subtle functional roles for the conserved Cdc4 residues, function was assayed in vivo under more stringent conditions in which Sic1 wt or the stabilized mutants, Sic1 (T33V) or Sic1(T45A) are over-expressed under a galactose promoter. This should amplify defects in cdc4 function. Under these conditions, Trp 717, Tyr 548 and the double mutant K404D/R443D are lethal showing that these residues are in fact important for functions
as §2

“Also recorded” adds a separate entry of the source.

B1: R443A: mutant cdc4 polypeptide (protein)
chain: MGSFPLAEFPLRDIPVPYSYRVSGGIASSGSVTALVTAAGTHRNSSTAKTVETEDGEEDIDEYQRKRAAGSGESTPERSDFKRVKHDNHKTLHPVNLQNTGAASVDNDGLHNLTDISNDAEKLLMSVDDGSAAPSTLSVNMGVASHNVAAPTTVNAATITGSDVSNNVNSATINNPMEEGALPLSPTASSPGTTTPLAKTTKTINNNNNIADLIESKDSIISPEYLSDEIFSAINNNLPHAYFKNLLFRLVANMDRSELSDLGTLIKDNLKRDLITSLPFEISLKIFNYLQFEDIINSLGVSQNWNKIIRKSTSLWKKLLISENFVSPKGFNSLNLKLSQKYPKLSQQDRLRLSFLENIFILKNWYNPKFVPQRTTLRGHMTSVITCLQFEDNYVITGADDKMIRVYDSINKKFLLQLSGHDGGVWALKYAHGGILVSGSTDATVRVWDIKKGCCTHVFKGHNSTVRCLDIVEYKNIKYIVTGSRDNTLHVWKLPKESSVPDHGEEHDYPLVFHTPEENPYFVGVLRGHMASVRTVSGHGNIVVSGSYDNTLIVWDVAQMKCLYILSGHTDRIYSTIYDHERKRCISASMDTTIRIWDLENIWNNGECSYATNSASPCAKILGAMYTLQGHTALVGLLRLSDKFLVSAAADGSIRGWDANDYSRKFSYHHTNLSAITTFYVSDNILVSGSENQFNIYNLRSGKLVHANILKDADQIWSVNFKGKTLVAAVEKDGQSFLEILDFSKASKINYVSNPVNSSSSSLESISTSLGLTRTTIIP
Consider B1, for which, in assay [1], the P-Sic1 pull down result is on record as “bind”. For the same molecule, in assay [1] (listed as Arg443Ala), the P-Sic1 pull down entry is recorded as “fully competent; also recorded: indistinguishable from wild type”. In addition, the shuffle entry in assay [2] is recorded as “alive”. Also, the shuffle result in assay [2] (listed as Arg443Ala) is recorded as “viable; also recorded: indistinguishable from wild type”. Also, in assay [3], the “gal Sic1T33V” value is “alive”, the “gal Sic1T45A” value is reported as “dead”, the “gal Sic1 wt” value is given as “alive” and the “viability / sensitivity to increased SIC1 dosage” value is on record as “indistinguishable from wild type”.

B2: Y574F: mutant cdc4 polypeptide (protein)
chain: MGSFPLAEFPLRDIPVPYSYRVSGGIASSGSVTALVTAAGTHRNSSTAKTVETEDGEEDIDEYQRKRAAGSGESTPERSDFKRVKHDNHKTLHPVNLQNTGAASVDNDGLHNLTDISNDAEKLLMSVDDGSAAPSTLSVNMGVASHNVAAPTTVNAATITGSDVSNNVNSATINNPMEEGALPLSPTASSPGTTTPLAKTTKTINNNNNIADLIESKDSIISPEYLSDEIFSAINNNLPHAYFKNLLFRLVANMDRSELSDLGTLIKDNLKRDLITSLPFEISLKIFNYLQFEDIINSLGVSQNWNKIIRKSTSLWKKLLISENFVSPKGFNSLNLKLSQKYPKLSQQDRLRLSFLENIFILKNWYNPKFVPQRTTLRGHMTSVITCLQFEDNYVITGADDKMIRVYDSINKKFLLQLSGHDGGVWALKYAHGGILVSGSTDRTVRVWDIKKGCCTHVFKGHNSTVRCLDIVEYKNIKYIVTGSRDNTLHVWKLPKESSVPDHGEEHDYPLVFHTPEENPYFVGVLRGHMASVRTVSGHGNIVVSGSYDNTLIVWDVAQMKCLYILSGHTDRIFSTIYDHERKRCISASMDTTIRIWDLENIWNNGECSYATNSASPCAKILGAMYTLQGHTALVGLLRLSDKFLVSAAADGSIRGWDANDYSRKFSYHHTNLSAITTFYVSDNILVSGSENQFNIYNLRSGKLVHANILKDADQIWSVNFKGKTLVAAVEKDGQSFLEILDFSKASKINYVSNPVNSSSSSLESISTSLGLTRTTIIP
Regarding B2, the P-Sic1 pull down result is given as “bind” in assay [1], “fully competent” in assay [1] (listed as Tyr574Ala) and “indistinguishable from wild type” in assay [1] (listed as Tyr574Phe). For the same molecule, the shuffle result in assay [2] is listed as “alive”; in assay [2] (listed as Tyr574Ala), “viable”; in assay [2] (listed as Tyr574Phe) it was “indistinguishable from wild type”. Further, the “gal Sic1T33V” value in assay [3] is “alive”. Further, the “gal Sic1T45A” value in assay [3] was “dead”. In addition, the “gal Sic1 wt” value in assay [3] is “alive”. The “viability / sensitivity to increased SIC1 dosage” value in assay [3] is on record as “indistinguishable from wild type”.

B3: K402A: mutant cdc4 polypeptide (protein)
chain: MGSFPLAEFPLRDIPVPYSYRVSGGIASSGSVTALVTAAGTHRNSSTAKTVETEDGEEDIDEYQRKRAAGSGESTPERSDFKRVKHDNHKTLHPVNLQNTGAASVDNDGLHNLTDISNDAEKLLMSVDDGSAAPSTLSVNMGVASHNVAAPTTVNAATITGSDVSNNVNSATINNPMEEGALPLSPTASSPGTTTPLAKTTKTINNNNNIADLIESKDSIISPEYLSDEIFSAINNNLPHAYFKNLLFRLVANMDRSELSDLGTLIKDNLKRDLITSLPFEISLKIFNYLQFEDIINSLGVSQNWNKIIRKSTSLWKKLLISENFVSPKGFNSLNLKLSQKYPKLSQQDRLRLSFLENIFILKNWYNPKFVPQRTTLRGHMTSVITCLQFEDNYVITGADDAMIRVYDSINKKFLLQLSGHDGGVWALKYAHGGILVSGSTDRTVRVWDIKKGCCTHVFKGHNSTVRCLDIVEYKNIKYIVTGSRDNTLHVWKLPKESSVPDHGEEHDYPLVFHTPEENPYFVGVLRGHMASVRTVSGHGNIVVSGSYDNTLIVWDVAQMKCLYILSGHTDRIYSTIYDHERKRCISASMDTTIRIWDLENIWNNGECSYATNSASPCAKILGAMYTLQGHTALVGLLRLSDKFLVSAAADGSIRGWDANDYSRKFSYHHTNLSAITTFYVSDNILVSGSENQFNIYNLRSGKLVHANILKDADQIWSVNFKGKTLVAAVEKDGQSFLEILDFSKASKINYVSNPVNSSSSSLESISTSLGLTRTTIIP
On to B3, for which the P-Sic1 pull down entry in assay [1] was “bind”. Also, in assay [1] (listed as Lys402Ala), the P-Sic1 pull down entry is given as “fully competent; also recorded: indistinguishable from wild type”. In assay [2], the shuffle entry is “alive”. Further, the shuffle result in assay [2] (listed as Lys402Ala) is recorded as “viable; also recorded: indistinguishable from wild type”. In assay [3], the “gal Sic1T33V” value is on record as “alive”, the “gal Sic1T45A” value is on record as “dead”, the “gal Sic1 wt” value was “alive” and the “viability / sensitivity to increased SIC1 dosage” value is “indistinguishable from wild type”.
